In patent publication US10125171 (APELLIS PHARMACEUTICALS, dated 2018):

B1: CA28-AEEAc-Lys-(PEG30k) (peptide)
peptide: ICVWQDWGAHRCTK
modifications: N-terminal acetyl; 1-methyl-tryptophan at position 4; disulfide Cys2-Cys12; AEEAc (8-amino-3,6-dioxaoctanoic acid) spacer between Thr13 and the C-terminal Lys; linear monofunctional 30 kD PEG coupled (NHS ester) to the Lys side chain; C-terminal amide
B2: CA28-AEEAc-Lys-(PEG40k) (peptide)
peptide: ICVWQDWGAHRCTK
modifications: N-terminal acetyl; 1-methyl-tryptophan at position 4; disulfide Cys2-Cys12; AEEAc (8-amino-3,6-dioxaoctanoic acid) spacer between Thr13 and the C-terminal Lys; linear monofunctional 40 kD PEG coupled (NHS ester) to the Lys side chain; C-terminal amide
B3: (CA28-AEEAc)8-PEG40k (peptide)
peptide: ICVWQDWGAHRCTK
modifications: N-terminal acetyl; 1-methyl-tryptophan at position 4; disulfide Cys2-Cys12; AEEAc spacer between Thr13 and the C-terminal Lys; Lys side chain coupled to one arm of an eight-arm 40 kD PEG (hexaglycerol octa(succinimidyloxyglutaryl)polyoxyethylene); C-terminal amide

Biological target: human complement component C3 (human, UniProt P01024 23-1663)
Assay: cell-based or functional assay

human complement component C3, sequence (P01024 23-1663 limits assumed): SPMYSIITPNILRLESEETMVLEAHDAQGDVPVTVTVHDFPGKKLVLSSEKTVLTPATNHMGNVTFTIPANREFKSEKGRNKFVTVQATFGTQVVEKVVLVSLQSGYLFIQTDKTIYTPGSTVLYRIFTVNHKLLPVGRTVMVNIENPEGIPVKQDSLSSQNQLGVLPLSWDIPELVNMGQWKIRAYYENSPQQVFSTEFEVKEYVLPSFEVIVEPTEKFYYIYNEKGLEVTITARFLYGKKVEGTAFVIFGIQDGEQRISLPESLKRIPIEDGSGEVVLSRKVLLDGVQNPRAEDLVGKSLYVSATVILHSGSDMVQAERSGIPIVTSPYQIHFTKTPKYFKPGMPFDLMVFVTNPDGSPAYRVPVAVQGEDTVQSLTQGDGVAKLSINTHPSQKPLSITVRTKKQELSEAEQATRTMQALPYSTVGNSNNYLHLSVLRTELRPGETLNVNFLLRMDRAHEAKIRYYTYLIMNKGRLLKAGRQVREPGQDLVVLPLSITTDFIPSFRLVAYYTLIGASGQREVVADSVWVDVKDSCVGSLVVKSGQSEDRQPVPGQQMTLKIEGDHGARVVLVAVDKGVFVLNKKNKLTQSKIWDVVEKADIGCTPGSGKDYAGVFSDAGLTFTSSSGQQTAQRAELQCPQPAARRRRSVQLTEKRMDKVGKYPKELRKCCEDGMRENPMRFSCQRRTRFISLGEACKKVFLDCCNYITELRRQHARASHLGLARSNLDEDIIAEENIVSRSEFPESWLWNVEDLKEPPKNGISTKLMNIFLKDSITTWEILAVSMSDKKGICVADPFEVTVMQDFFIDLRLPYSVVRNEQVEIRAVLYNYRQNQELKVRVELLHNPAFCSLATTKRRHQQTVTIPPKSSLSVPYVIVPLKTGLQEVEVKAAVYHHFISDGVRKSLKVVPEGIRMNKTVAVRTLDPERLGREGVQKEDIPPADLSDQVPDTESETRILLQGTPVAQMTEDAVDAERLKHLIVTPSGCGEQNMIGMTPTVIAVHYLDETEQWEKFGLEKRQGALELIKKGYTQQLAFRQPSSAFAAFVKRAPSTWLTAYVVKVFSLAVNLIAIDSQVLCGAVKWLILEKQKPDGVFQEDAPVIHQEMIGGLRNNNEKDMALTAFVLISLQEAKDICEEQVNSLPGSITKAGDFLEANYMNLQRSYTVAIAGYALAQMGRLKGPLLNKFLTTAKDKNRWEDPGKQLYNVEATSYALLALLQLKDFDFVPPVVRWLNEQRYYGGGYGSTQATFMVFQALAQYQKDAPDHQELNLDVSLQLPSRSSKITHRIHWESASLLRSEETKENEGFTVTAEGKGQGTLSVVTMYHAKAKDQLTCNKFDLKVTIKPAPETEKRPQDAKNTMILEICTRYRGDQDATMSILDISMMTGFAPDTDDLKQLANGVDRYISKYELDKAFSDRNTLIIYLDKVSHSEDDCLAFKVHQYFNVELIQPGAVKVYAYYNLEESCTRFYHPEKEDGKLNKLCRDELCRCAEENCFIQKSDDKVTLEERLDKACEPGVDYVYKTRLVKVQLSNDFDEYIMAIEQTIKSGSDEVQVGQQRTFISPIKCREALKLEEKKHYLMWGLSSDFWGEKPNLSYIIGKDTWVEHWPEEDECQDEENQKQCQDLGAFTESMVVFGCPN

| Binder | activity relative to CA28 on a molar basis, classical complement inhibition assay [%] | complement inhibiting activity relative to CA28 on a molar basis | IC50 on a molar basis (corrected for 7.5 CA28 moieties per molecule), classical complement inhibition assay (C3b deposition ELISA, human plasma) [µM] |
| --- | --- | --- | --- |
| B1 | ~30 | ~30 % of the activity of CA28 |  |
| B2 | ~30 | ~30 % of the activity of CA28 |  |
| B3 |  |  | ~0.26 |
